Legend:
[1] = biological target: filamentous β-actin (human) (UniProt P60709); test: co-sedimentation; 10 μM β-actin preincubated with 0–10 μM Tpm for 30 min at room temperature; 20 mM MOPS pH 7.0, 5 mM MgCl2, 100 mM KCl; SDS-PAGE densitometry of supernatant and pellet; Hill fit, apparent constants (K50%)
[2] = biological target: acto-NM-2B (filamentous β-actin with NM-2B–HMM) (human) (UniProt P60709); test: co-sedimentation; 6:1 acto–Tpm mixture (6 μM β-actin, 1 μM Tpm) with 0–16 μM NM-2B–HMM, 30 min; 20 mM MOPS pH 7.0, 5 mM MgCl2, 50 mM KCl; pelleted 20 min at 100,000 × g; Hill fit
[3] = biological target: Tpm3.1-enveloped filamentous β-actin (human) (UniProt P60709); test: stopped-flow light scattering; 4 μM NM-2B0 mixed with 0.5–4 μM bare actin or actin-Tpm complex, light scattering at 405 nm; 20 °C; 20 mM MOPS pH 7.0, 100 mM KCl, 5 mM MgCl2; no nucleotide; k+A from the slope, k−A from the y intercept, KA = k−A/k+A
[4] = biological target: Tpm1.12-enveloped filamentous β-actin (human | rat) (UniProt P60709); test: as above

Row | Substance | Kd [1] [nM] | Kd [2] [nM] | Kd [3] [nM] | Kd [4] [nM]
1 | Tpm1.8cy (b.–.b.d) (natural protein) | 100 | < 100 | – | –
2 | single-headed construct NM-2B0 (motor domain of human NM-2B0, residues 1–782, two Dictyostelium discoideum α-actinin repeats, C-terminal octahistidine tag) (from UniProt P35580 1-782) (domain or fragment) | – | – | 30 | 80

Source: publication PMC5777259
